± gives the half width of the 95% confidence interval.
Columns and labels:
[1] = folding stability dG unfold (combined trypsin and chymotrypsin); higher = more stable
Method in brief: (§1)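 Only designs with AlphaFold2 dimer inter-PAE above 15 were retained; each was a mini-protein under 80 residues with no cysteine, in a PA-tagged cDNA display construct. After digestion with trypsin and chymotrypsin and sequencing, K50 was inferred by Bayesian fitting of counts, and unfolding free energy was derived per protease or combined against a sequence-predicted unfolded-state K50 and a shared folded-state K50.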

[2] = folding stability dG unfold from trypsin proteolysis; higher = more stable
Method in brief: as §1

[3] = folding stability dG unfold from chymotrypsin proteolysis; higher = more stable
Method in brief: as §1

| Sequence | folding stability dG unfold [1] | folding stability dG unfold [2] | folding stability dG unfold [3] |
| --- | --- | --- | --- |
| SAGGSAGGSAGGSMIVEEDPVGPEKVTTVTLPEKDKLVTVTETFLPDGSVVTTTTPVPSSAGGSAGGSAGGS [r4_332_JUSTAS] | 1.96 ± 0.13 kcal/mol | 1.8 ± 0.17 kcal/mol | 2 ± 0.25 kcal/mol |
| SAGGSAGGSAGGSMIVLRMSADEIKKLLPPGAKIKKIEYDEETDEVYVIIEFDKDGKIISAGGSAGGSAGGS [r4_435_TrROS_Hall] | 1.49 ± 0.069 kcal/mol | 1.53 ± 0.028 kcal/mol | 1.32 ± 0.092 kcal/mol |
| SAGGSAGGSAGGSMKIELPEGAEITEIKKLPNGTYEMTIRVDGKELKIRFVDGKLVIVPSAGGSAGGSAGGS [r4_280_TrROS_Hall] | 3.56 ± 0.077 kcal/mol | 3.62 ± 0.14 kcal/mol | 3.51 ± 0.057 kcal/mol |
| SAGGSAGGSAGGSMKITKTLIPETGLYKVTITLPGGKPVEIEAPPSSSLEEVKKKAEKLSAGGSAGGSAGGS [r4_205_JUSTAS] | -0.145 ± 0.26 kcal/mol | -0.116 ± 0.12 kcal/mol | -0.169 ± 0.26 kcal/mol |
| SAGGSAGGSAGGSMKIYKITVKKEDSELEFYVSDDVPAEVAANILKALYPDVEVKIEEGSAGGSAGGSAGGS [r4_155_TrMRF] | 1.11 ± 0.15 kcal/mol | 1.25 ± 0.048 kcal/mol | 1.1 ± 0.1 kcal/mol |
| SAGGSAGGSAGGSMKLNITVTLPDGTPITLTFPVDKIEEILKEAGLENISPELITKIEPISAGGSAGGSAGG [r7_745_JUSTAS] | 1.37 ± 0.051 kcal/mol | 1.33 ± 0.034 kcal/mol | 1.39 ± 0.026 kcal/mol |
| SAGGSAGGSAGGSMKYITITETTEEEVLVLYYDPETGEPVREEKVLRTVTKTRTLPPDLKSAGGSAGGSAGG [r7_573_JUSTAS] | 0.189 ± 0.14 kcal/mol | -0.236 ± 0.23 kcal/mol | 0.434 ± 0.19 kcal/mol |
| SAGGSAGGSAGGSMLVEKKTFKDPKTGKTYIEIVIKDENGNLLSVKILSTEDPEKIEKLLSAGGSAGGSAGG [r7_484_JUSTAS] | 2.37 ± 0.15 kcal/mol | 2.15 ± 0.12 kcal/mol | 2.55 ± 0.037 kcal/mol |
| SAGGSAGGSAGGSMLVRFPDKDVLSDGSEAEAERLAEELAAAGRPVELEFISPEEAAARSAGGSAGGSAGGS [r4_131_JUSTAS] | -0.424 ± 0.31 kcal/mol | -0.225 ± 0.21 kcal/mol | -0.83 ± 0.32 kcal/mol |
| SAGGSAGGSAGGSMPIVRIEVKHPDQKHTFFIPPDMPLEDIADELASQYPNVEVKIEPVSAGGSAGGSAGGS [r4_155_TrROS] | 0.935 ± 0.21 kcal/mol | 0.355 ± 0.091 kcal/mol | 1.33 ± 0.11 kcal/mol |
| SAGGSAGGSAGGSMPTYRITVEVDGKKYTITVREGMSPEEIAKRLKELYPNLTVKIEPVSAGGSAGGSAGGS [r4_155_TrROS_Hall] | 4.04 ± 0.13 kcal/mol | 3.75 ± 0.13 kcal/mol | 4.07 ± 0.15 kcal/mol |
| SAGGSAGGSAGGSMSSTVTTTLVEVGPPNGKRVLVRRTTTTFPDGSVTTTVTVLSTTIASAGGSAGGSAGGS [r4_496_JUSTAS] | 2.37 ± 0.063 kcal/mol | 1.84 ± 0.027 kcal/mol | 2.61 ± 0.033 kcal/mol |
| SAGGSAGGSAGGSMSTVFVSTLTLPDPSGLSTVLTTTVEIDPEGNAHPVTSTEEVSAAASAGGSAGGSAGGS [r4_80_JUSTAS] | 0.652 ± 0.079 kcal/mol | 0.716 ± 0.022 kcal/mol | 0.33 ± 0.089 kcal/mol |
| SAGGSAGGSAGGSMTLKVTLTPPSGEVVEFEITEEELDKLKEELPEDWSISTEPIPELESAGGSAGGSAGGS [r4_63_JUSTAS] | 2.29 ± 0.051 kcal/mol | 2.43 ± 0.07 kcal/mol | 2.132 ± 0.016 kcal/mol |
| SAGGSAGGSAGGSMVTLTVEKTFTSLLKTPESELIPVTSTVTEEVTIPESEATEELIKELSAGGSAGGSAGG [r7_777_JUSTAS] | 0.399 ± 0.2 kcal/mol | 0.388 ± 0.054 kcal/mol | -0.0189 ± 0.23 kcal/mol |
| SAGGSAGGSAGGSMVVEYDPETGVRTTTVALPSDSVEVTTEKIDPATGEVVETVTELAASAGGSAGGSAGGS [r4_415_JUSTAS] | 0.358 ± 0.086 kcal/mol | -0.105 ± 0.027 kcal/mol | 0.634 ± 0.048 kcal/mol |
| SAGGSAGGSAGGSMYIKIPGEPGDLREVVIEGKKVKVTPDANNPDKVTYTLPDGTKIALSAGGSAGGSAGGS [r4_488_JUSTAS] | 0.638 ± 0.073 kcal/mol | 0.117 ± 0.064 kcal/mol | 0.957 ± 0.14 kcal/mol |
| SAGGSAGGSAGGSMYTLLSTENRPDPNSSKPVTTKTYKLPDGSTVVVTEYPDSVEEKPLVSAGGSAGGSAGG [r7_479_JUSTAS] | 0.182 ± 0.25 kcal/mol | -0.00111 ± 0.087 kcal/mol | -0.122 ± 0.63 kcal/mol |
